The values below come from paper PMC8897147 (Acta Pharmaceutica Sinica. B, 2021).

Holding throughout (assay): FRET or BRET
Test [1] has as its target glucagon-like peptide-1 receptor-Rluc8 (UniProt P43220 24-463).
Test [2] deals with calcitonin-like receptor-Rluc8 (human, UniProt Q16602 23-461).
Another test deals with secretin receptor-Rluc8 (UniProt P47872 23-440).
The target in test [3] is T1, growth hormone-releasing hormone receptor-Rluc8 (UniProt Q02643 23-423).
T1 sequence: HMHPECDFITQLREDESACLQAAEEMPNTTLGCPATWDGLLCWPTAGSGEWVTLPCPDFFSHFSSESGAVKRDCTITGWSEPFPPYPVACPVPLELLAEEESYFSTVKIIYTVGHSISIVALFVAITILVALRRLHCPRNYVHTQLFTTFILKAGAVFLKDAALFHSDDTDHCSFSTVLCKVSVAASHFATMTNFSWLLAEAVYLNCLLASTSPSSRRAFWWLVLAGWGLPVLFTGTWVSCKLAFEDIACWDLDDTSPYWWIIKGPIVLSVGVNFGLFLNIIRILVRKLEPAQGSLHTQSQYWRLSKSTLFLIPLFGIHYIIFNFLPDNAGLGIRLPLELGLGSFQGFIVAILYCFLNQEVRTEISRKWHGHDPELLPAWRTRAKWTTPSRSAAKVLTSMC

In test [4] the target is T2, glucagon-like peptide-2 receptor-Rluc8 (UniProt O95838 1-553).
T2 sequence: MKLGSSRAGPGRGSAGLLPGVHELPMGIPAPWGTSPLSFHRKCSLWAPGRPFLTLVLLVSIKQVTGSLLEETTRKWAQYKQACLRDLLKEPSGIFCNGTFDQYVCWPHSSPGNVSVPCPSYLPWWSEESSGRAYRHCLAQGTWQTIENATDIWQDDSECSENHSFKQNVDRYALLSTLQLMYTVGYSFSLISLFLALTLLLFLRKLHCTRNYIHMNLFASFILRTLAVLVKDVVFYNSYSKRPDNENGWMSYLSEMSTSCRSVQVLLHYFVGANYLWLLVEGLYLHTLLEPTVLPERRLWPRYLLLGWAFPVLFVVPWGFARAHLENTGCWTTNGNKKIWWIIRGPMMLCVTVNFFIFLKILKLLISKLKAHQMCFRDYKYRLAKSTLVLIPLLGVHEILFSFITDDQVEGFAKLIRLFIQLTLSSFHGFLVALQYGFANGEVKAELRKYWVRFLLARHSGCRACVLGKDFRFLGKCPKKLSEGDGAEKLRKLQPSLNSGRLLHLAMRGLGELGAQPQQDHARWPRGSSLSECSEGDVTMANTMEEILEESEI

Test [5] has as its target T3, gastric inhibitory polypeptide receptor-Rluc8 (UniProt P48546 22-466).
T3 sequence: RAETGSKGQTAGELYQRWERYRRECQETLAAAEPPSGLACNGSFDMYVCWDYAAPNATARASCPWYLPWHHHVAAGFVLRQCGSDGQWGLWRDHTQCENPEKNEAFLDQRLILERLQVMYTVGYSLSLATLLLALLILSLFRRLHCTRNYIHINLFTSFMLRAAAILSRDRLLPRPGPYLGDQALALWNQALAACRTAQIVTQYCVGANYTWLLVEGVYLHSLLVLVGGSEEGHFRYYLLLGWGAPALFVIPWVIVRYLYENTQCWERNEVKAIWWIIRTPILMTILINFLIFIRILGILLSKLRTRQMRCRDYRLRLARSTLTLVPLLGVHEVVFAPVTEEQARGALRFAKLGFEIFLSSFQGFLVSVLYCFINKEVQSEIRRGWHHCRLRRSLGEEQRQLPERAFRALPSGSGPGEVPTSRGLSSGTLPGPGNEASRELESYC

The target of the next test is glucagon receptor-Rluc8 (UniProt P47871 26-477).
Chain of glucagon receptor-Rluc8 (P47871 26-477): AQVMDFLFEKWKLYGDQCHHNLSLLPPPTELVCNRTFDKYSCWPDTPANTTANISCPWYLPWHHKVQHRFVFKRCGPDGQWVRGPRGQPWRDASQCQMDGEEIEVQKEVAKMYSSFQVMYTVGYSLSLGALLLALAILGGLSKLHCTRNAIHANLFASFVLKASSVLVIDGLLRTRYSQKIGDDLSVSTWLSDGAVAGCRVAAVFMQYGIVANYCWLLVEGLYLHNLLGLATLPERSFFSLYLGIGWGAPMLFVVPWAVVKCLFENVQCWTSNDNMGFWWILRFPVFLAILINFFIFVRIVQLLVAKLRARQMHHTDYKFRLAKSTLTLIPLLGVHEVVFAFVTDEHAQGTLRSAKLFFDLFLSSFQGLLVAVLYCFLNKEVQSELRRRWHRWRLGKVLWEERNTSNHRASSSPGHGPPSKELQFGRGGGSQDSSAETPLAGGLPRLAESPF

Chain of calcitonin-like receptor-Rluc8 (Q16602 23-461): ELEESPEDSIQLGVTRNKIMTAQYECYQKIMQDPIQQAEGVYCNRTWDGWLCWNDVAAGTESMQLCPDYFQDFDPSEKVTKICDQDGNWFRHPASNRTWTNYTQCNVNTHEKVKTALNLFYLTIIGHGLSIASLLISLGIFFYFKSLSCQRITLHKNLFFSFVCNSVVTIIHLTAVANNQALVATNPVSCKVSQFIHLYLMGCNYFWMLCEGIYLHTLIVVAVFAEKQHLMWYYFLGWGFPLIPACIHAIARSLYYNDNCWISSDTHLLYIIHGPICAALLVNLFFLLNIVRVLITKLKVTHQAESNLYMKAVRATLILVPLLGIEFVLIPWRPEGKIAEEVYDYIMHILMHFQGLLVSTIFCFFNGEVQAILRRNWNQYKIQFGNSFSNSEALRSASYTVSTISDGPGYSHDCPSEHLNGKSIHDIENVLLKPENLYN
Chain of secretin receptor-Rluc8 (P47872 23-440): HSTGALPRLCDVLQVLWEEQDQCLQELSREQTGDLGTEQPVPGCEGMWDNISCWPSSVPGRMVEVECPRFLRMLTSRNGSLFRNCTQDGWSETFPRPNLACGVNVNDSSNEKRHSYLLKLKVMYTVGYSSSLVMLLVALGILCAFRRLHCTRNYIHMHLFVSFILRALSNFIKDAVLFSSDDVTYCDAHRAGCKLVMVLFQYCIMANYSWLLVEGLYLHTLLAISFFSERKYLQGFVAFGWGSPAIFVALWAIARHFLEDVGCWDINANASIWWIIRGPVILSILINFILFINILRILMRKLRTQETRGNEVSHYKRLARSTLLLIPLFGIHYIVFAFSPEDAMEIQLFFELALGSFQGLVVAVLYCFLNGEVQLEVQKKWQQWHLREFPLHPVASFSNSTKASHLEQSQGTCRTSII

B1: RAMP3-Ypet (receptor activity-modulating protein 3) (natural protein)
chain: RAGGCNETGMLERLPLCGKAFADMMGKVDVWKWCNLSEFIVYYESFTNCTEMEANVVGCYWPNPLAQGFITGIHRQFFSNCTVDRVHLEDPPDEVLIPLIVIPVVLTVAMAGLVVWRSKRTDTLL
Turning to B1, the “BRET50 (Kd)” value was 1 intensity ratio of RAMP:receptor in test [1]; 0.087 intensity ratio of RAMP:receptor in test [2]; 1.63 intensity ratio of RAMP:receptor with secretin receptor-Rluc8; 2.09 intensity ratio of RAMP:receptor in test [3]; 1.66 intensity ratio of RAMP:receptor in test [4]; 0.352 intensity ratio of RAMP:receptor in test [5]. Also, the “BRET50 (Kd)” value with glucagon receptor-Rluc8 is 2.34 intensity ratio of RAMP:receptor.

B2: RAMP1-Ypet (receptor activity-modulating protein 1) (natural protein)
chain: CQEANYGALLRELCLTQFQVDMEAVGETLWCDWGRTIRSYRELADCTWHMAEKLGCFWPNAEVDRFFLAVHGRYFRSCPISGRAVRDPPGSILYPFIVVPITVTLLVTALVVWQSKRTEGIV
For the molecule B2, the “BRET50 (Kd)” value in test [2] is 0.077 intensity ratio of RAMP:receptor; in test [5], 4.6 intensity ratio of RAMP:receptor; in the test with glucagon receptor-Rluc8, 1.55 intensity ratio of RAMP:receptor.

B3: RAMP2-Ypet (receptor activity-modulating protein 2) (natural protein)
chain: QPLPTTGTPGSEGGTVKNYETAVQFCWNHYKDQMDPIEKDWCDWAMISRPYSTLRDCLEHFAELFDLGFPNPLAERIIFETHQIHFANCSLVQPTFSDPPEDVLLAMIIAPICLIPFLITLVVWRSKDSEAQA
Regarding B3, the “BRET50 (Kd)” value was 0.114 intensity ratio of RAMP:receptor in test [2]; 0.893 intensity ratio of RAMP:receptor in test [3]; 7.45 intensity ratio of RAMP:receptor in test [4]; 2.75 intensity ratio of RAMP:receptor in test [5]; 1.65 intensity ratio of RAMP:receptor with glucagon receptor-Rluc8.
